Columns and labels:
Assay type in all cases: cell-based
[1] = target: T1, HLA-A68 (MHC class I) expressed on HeLa cells (Homo sapiens, UniProt P04439, A269V/D140Y/D185E/E176V/E277Q/E87N/F33Y/G231S/I121R/I166T/I218V/L180W/L300P/L318F/N151K/P208A/P217A/Q86R/R138H/R169H/S129P/T345S/V36M); experiment: ETV* peptide loading on HeLa cells by exogenous mouse TAPBPR
T1 construct: HLA-A68 (MHC class I) expressed on HeLa; endogenous in cells; host or cells: HeLaM and derivatives (TAPBPR-KO with or without TAPBPR/tapasin constructs, +Her2, Her2-KO, +PDL1, pD-GFP); in some arms HeLaM-HLA-ABC-KO re-expressing HLA-A*68:02

[2] = target: T2, YLL/HLA-A2 complexes on SKBR3 and MCF-7 cells (Homo sapiens, UniProt P04439, D140Y/D185E/D98H/E176V/E277Q/G131W/G231S/I119V/I121R/I166T/I218V/L300P/L318F/N151K/N90K/P208A/P217A/Q86G/Q94H/R138H/R169H/T345S); experiment: TCR-like mAb LMP-1 staining of breast cancer cell lines
T2 construct: endogenous in cells; host or cells: SKBR3 and MCF-7
Procedure: (§1) Bar graphs show (B) the binding YLL* peptide and (C) the binding of TCR-like mAb reagent LMP-1 which recognises the EBV specific peptide YLL in the context of HLA-A2, when SKBR3 and MCF-7 cells were incubated with no peptide, peptide alone, or peptide in the presence of 100 nM soluble TAPBPR or 100 nM TAPBPR-Her2 antibody fusion protein.

HLA-A*68:02 = target: T3, HLA-A*68:02 (Homo sapiens, UniProt P04439, A269V/D140Y/D185E/E176V/E277Q/E87N/F33Y/G231S/I121R/I166T/I218V/L180W/L300P/L318F/N151K/P208A/P217A/Q86R/R138H/R169H/S129P/T345S/V36M); experiment: ETV* peptide loading on HeLaM, HeLaM+Her2 and HeLaM^Her2KO cells; settings: Her2-dependent; 10 nM peptide 15 min
T3 construct: HLA-A68 (MHC class I) expressed on HeLa; endogenous in cells; host or cells: HeLaM and derivatives (TAPBPR-KO with or without TAPBPR/tapasin constructs, +Her2, Her2-KO, +PDL1, pD-GFP); in some arms HeLaM-HLA-ABC-KO re-expressing HLA-A*68:02
Description: Note, there is endogenous Her2 on HeLa.

[3] = target: T4, HLA-A2 on SKBR3 and MCF-7 cells (Homo sapiens, UniProt P04439, D140Y/D185E/D98H/E176V/E277Q/G131W/G231S/I119V/I121R/I166T/I218V/L300P/L318F/N151K/N90K/P208A/P217A/Q86G/Q94H/R138H/R169H/T345S); experiment: YLL* peptide loading on breast cancer cell lines; settings: for loading of antigenic peptide onto MCF-7 and SKBR3 cells: 100 nM protein, YLL* peptide
T4 construct: endogenous in cells; host or cells: SKBR3 and MCF-7
Procedure: as §1

HLA-A2 = target: T5, HLA-A2 (Homo sapiens, UniProt P04439, D140Y/D185E/D98H/E176V/E277Q/G131W/G231S/I119V/I121R/I166T/I218V/L300P/L318F/N151K/N90K/P208A/P217A/Q86G/Q94H/R138H/R169H/T345S); experiment: NLV* and YLL* viral peptide loading on HeLaM-ABC^KO cells -/+ HLA-A2; settings: for loading of viral peptides NLV* and YLL* onto surface expressed HLA-A2: 10 nM peptide 15 min
T5 construct: expressed in transfected cells; host or cells: HeLaM-HLA-ABC-KO
Procedure: For the histograms in A & C 100 nM of the indicated recombinant TAPBPR protein was used. […] The TCR is specific for […] peptide presented on HLA-A2 molecules.

B1: mouse TAPBPR: exogenous luminal domains of mouse TAPBPR; SEQ ID NO: 22 (protein)
chain: DPPTAPTTAERQRQPTDIILDCFLVTEDRHRGAFASSGDRERALLVLKQVPVLDDGSLEGITDFQGSTETKQDSPVIFEASVDLVQIPQAEALLHADCSGKAVTCEISKYFLQARQEATFEKAHWFISNMQVSRGGPSVSMVMKTLRDAEVGAVRHPTLNLPLSAQGTVKTQVEFQVTSETQTLNHLLGSSVSLHCSFSMAPDLDLTGVEWRLQHKGSGQLVYSWKTGQGQAKRKGATLEPEELLRAGNASLTLPNLTLKDEGTYICQISTSLYQAQQIMPLNILAPPKVQLHLANKDPLPSLVCSIAGYYPLDVGVTWIREELGGIPAQVSGASFSSLRQSTMGTYSISSTVMADPGPTGATYTCQVAHVSLEEPLTTSMRVLPNPEQRGT
modifications: luminal domains of mouse TAPBPR
- loading of ETVSK*QSNV (ETV*) to HLA-A68 [1]: shown to load fluorescent human neoantigen peptide
- peptide loading efficiency relative to human TAPBPR [1]: less efficient than human TAPBPR

B2: TAPBPR-Her2-scFv: recombinant TAPBPR fused to a scFv specific for Her2; SEQ ID NO: 8 (protein)
chain: MGTQEGWCLLLCLALSGAAETKPHPAEGQWRAVDVVLDCFLVKDGAHRGALASSEDRARASLVLKQVPVLDDGSLEDFTDFQGGTLAQDDPPIIFEASVDLVQIPQAEALLHADCSGKEVTCEISRYFLQMTETTVKTAAWFMANVQVSGGGPSISLVMKTPRVAKNEVLWHPTLNLPLSPQGTVRTAVEFQVMTQTQSLSFLLGSSASLDCGFSMAPGLDLISVEWRLQHKGRGQLVYSWTAGQGQAVRKGATLEPAQLGMARDASLTLPGLTIQDEGTYICQITTSLYRAQQIIQLNIQASPKVRLSLANEALLPTLICDIAGYYPLDVVVTWTREELGGSPAQVSGASFSSLRQSVAGTYSISSSLTAEPGSAGATYTCQVTHISLEEPLGASTQVVPPERRHVGGGGSGGGGSGGGGSTSADLGSRAMAQVQLVQSGAEVKKPGESLKISCKGSGYSFTSYWIAWVRQMPGKGLEYMGLIYPGDSDTKYSPSFQGQVTISVDKSVSTAYLQWSSLKPSDSAVYFCARHDVGYCSSSNCAKWPEYFQHWGQGTLVTVSSGGGGSGGGGSGGGGSQSVLTQPPSVSAAPGQKVTISCSGSSSNIGNNYVSWYQQLPGTAPKLLIYDHTNRPAGVPDRFSGSKSGTSASLAISGFRSEDEADYYCASWDYTLSGWVFGGGTKLTVLGAAAGGGGS
modifications: TAPBPR-Her2scFv
- YLL/HLA-A2 complexes accessible for TCR binding versus soluble TAPBPR+peptide or peptide alone [2]: significantly more YLL/HLA-A2 complexes were accessible for TCR binding
- binding of TCR-like mAb LMP-1 to treated cells ([2]; fusion protein and peptide): bound extremely well
- loading of exogenous peptide ETV* onto surface of HeLaM cells (HLA-A*68:02): very efficient at loading exogenous peptide
- loading of antigenic peptide onto MCF-7 and SKBR3 cells [3]: efficiently loads antigenic peptides onto both of these breast cancer cell lines
- loading of antigenic peptide onto MCF-7 and SKBR3 cells ([3]; listed as TAPBPR-her 2 antibody fusion protein): works extremely efficiently on both these breast cancer cell lines
- peptide loading on SKBR3 cell line ([3]; low MHC I expression): efficient peptide loading
- peptide loading on cells lacking HLA-A, -B and -C expression (HLA-A2): no peptide loading was observed
- loading of viral peptides NLV* and YLL* onto surface expressed HLA-A2 (HLA-A2): could load fluorescent variants
- loading of viral peptides NLV* and YLL* onto surface expressed HLA-A2 (HLA-A2; listed as TAPBPR-Her2-svFc): shown to load viral peptides onto HeLa cells expressing HLA-A2
